In paper PMC8298264, “Function of cofactor Akirin2 in the regulation of gene expression in model human neutrophil-like HL60 cells” (Bioscience Reports, 2021):

Tested on: human HL60 cells
Experiment: SWATH-MS proteomics, differential protein representation, akirin2 KO vs WT HL60 cells
Format: cell-based
Conditions: akirin2 KO vs WT HL60 cells
How it was run: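 First, proteins from wild-type and knockout cells are digested with trypsin by FASP. Next, pooled IDA runs generate a reference ion library. Then six samples of 5 µg each are acquired by data-independent SWATH, and protein areas are normalized to the summed area of all detected proteins.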

[1] = SWATH-MS, over-represented in KO

Row | Molecule | Fold Change (sheet "Over-represented in KO") | Log (Fold Change) (sheet "Over-represented in KO") | Fold Change [1] | Log (Fold Change) [1]
1 | sp¦P11766¦ADHX_HUMAN (protein, UniProt P11766 2-374, looked up) Alcohol dehydrogenase class-3: ANEVIKCKAAVAWEAGKPLSIEEIEVAPPKAHEVRIKIIATAVCHTDAYTLSGADPEGCFPVILGHEGAGIVESVGEGVTKLKAGDTVIPLYIPQCGECKFCLNPKTNLCQKIRVTQGKGLMPDGTSRFTCKGKTILHYMGTSTFSEYTVVADISVAKIDPLAPLDKVCLLGCGISTGYGAAVNTAKLEPGSVCAVFGLGGVGLAVIMGCKVAGASRIIGVDINKDKFARAKEFGATECINPQDFSKPIQEVLIEMTDGGVDYSFECIGNVKVMRAALEACHKGWGVSVVVGVAASGEEIATRPFQLVTGRTWKGTAFGGWKSVESVPKLVSEYMSKKIKVDEFVTHNLSFDEINKAFELMHSGKSIRTVVKI | 1.096 | 0.03978 | – | –
2 | Serglycin (protein, UniProt P10124 28-158, looked up) Serglycin: YPTRRARYQWVRCNPDSNSANCLEEKGPMFELLPGESNKIPRLRTDLFPKTRIQDLNRIFPLSEDYSGSGFGSGSGSGSGSGSGFLTEMEQDYQLVDESDAFHDNLRSLDRNLPSDSQDLGQHGLEEDFML | – | – | 2.81 | 0.4488
3 | sp¦Q92900¦RENT1_HUMAN (protein, UniProt Q92900 1-1129, looked up) Regulator of nonsense …: MSVEAYGPSSQTLTFLDTEEAELLGADTQGSEFEFTDFTLPSQTQTPPGGPGGPGGGGAGGPGGAGAGAAAGQLDAQVGPEGILQNGAVDDSVAKTSQLLAELNFEEDEEDTYYTKDLPIHACSYCGIHDPACVVYCNTSKKWFCNGRGNTSGSHIVNHLVRAKCKEVTLHKDGPLGETVLECYNCGCRNVFLLGFIPAKADSVVVLLCRQPCASQSSLKDINWDSSQWQPLIQDRCFLSWLVKIPSEQEQLRARQITAQQINKLEELWKENPSATLEDLEKPGVDEEPQHVLLRYEDAYQYQNIFGPLVKLEADYDKKLKESQTQDNITVRWDLGLNKKRIAYFTLPKTDSGNEDLVIIWLRDMRLMQGDEICLRYKGDLAPLWKGIGHVIKVPDNYGDEIAIELRSSVGAPVEVTHNFQVDFVWKSTSFDRMQSALKTFAVDETSVSGYIYHKLLGHEVEDVIIKCQLPKRFTAQGLPDLNHSQVYAVKTVLQRPLSLIQGPPGTGKTVTSATIVYHLARQGNGPVLVCAPSNIAVDQLTEKIHQTGLKVVRLCAKSREAIDSPVSFLALHNQIRNMDSMPELQKLQQLKDETGELSSADEKRYRALKRTAERELLMNADVICCTCVGAGDPRLAKMQFRSILIDESTQATEPECMVPVVLGAKQLILVGDHCQLGPVVMCKKAAKAGLSQSLFERLVVLGIRPIRLQVQYRMHPALSAFPSNIFYEGSLQNGVTAADRVKKGFDFQWPQPDKPMFFYVTQGQEEIASSGTSYLNRTEAANVEKITTKLLKAGAKPDQIGIITPYEGQRSYLVQYMQFSGSLHTKLYQEVEIASVDAFQGREKDFIILSCVRANEHQGIGFLNDPRRLNVALTRARYGVIIVGNPKALSKQPLWNHLLNYYKEQKVLVEGPLNNLRESLMQFSKPRKLVNTINPGARFMTTAMYDAREAIIPGSVYDRSSQGRPSSMYFQTHDQIGMISAGPSHVAAMNIPIPFNLVMPPMPPPGYFGQANGPAAGRGTPKGKTGRGGRQKNRFGLPGPSQTNLPNSQASQDVASQPFSQGALTQGYISMSQPSQMSQPGLSQPELSQDSYLGDEFKSQIDVALSQDSTYQGERAYQHGGVTGLSQY | 1.105 | 0.04317 | – | –
